# Test results reported in publication PMC1935004.
# T1: BLBlaI-NTD (Bacillus licheniformis, UniProt P06555 1-82)
# T1 sequence: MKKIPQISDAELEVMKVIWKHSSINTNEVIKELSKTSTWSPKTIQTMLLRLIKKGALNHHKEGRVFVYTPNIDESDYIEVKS
# T2: SAMecI-NTD (Staphylococcus aureus, UniProt P68261 1-83)
# T2 sequence: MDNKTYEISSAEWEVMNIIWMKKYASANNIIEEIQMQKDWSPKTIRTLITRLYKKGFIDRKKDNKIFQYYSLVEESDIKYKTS
# Tests used:
# BLBlaI-NTD = target: T1, BLBlaI-NTD; assay: NMR titration
# SAMecI-NTD = target: T2, SAMecI-NTD; assay: NMR titration
binder,measurement,setting,value
1/2OP1blaP (dsDNA) DNA 1: AAAGTATTACAT DNA 2: ATGTAATACTTT,Kd,BLBlaI-NTD,190 ± 50 µM
same,Kd,SAMecI-NTD,860 ± 80 µM
